Measured values taken from patent US20150017651A1 (University of Texas, published 2015).

Target: mTOR (human, UniProt P42345 1-2549)
Assay: IP-Western, BE3 or SKGT4 cells

Row | Binder | binding result
1 | Gli3 (other) MEAQSHSSTTTEKKKVENSIVKCSTRTDVSEKAVASSTTSNEDESPGQTYHRERRNAITMQPQNVQGLSKVSEEPSTSSDERASLIKKEIHGSLPHVAEPSVPYRGTVFAMDPRNGYMEPHYHPPHLFPAFHPPVPIDARHHEGRYHYDPSPIPPLHMTSALSSSPTYPDLPFIRISPHRNPTAASESPFSPPHPYINPYMDYIRSLHSSPSLSMISATRGLSPTDAPHAGVSPAEYYHQMALLTGQRSPYADIIPSAATAGTGAIHMEYLHAMDSTRFSSPRLSARPSRKRTLSISPLSDHSFDLQTMIRTSPNSLVTILNNSRSSSSASGSYGHLSASAISPALSFTYSSAPVSLHMHQQILSRQQSLGSAFGHSPPLIHPAPTFPTQRPIPGIPTVLNPVQVSSGPSESSQNKPTSESAVSSTGDPMHNKRSKIKPDEDLPSPGARGQQEQPEGTTLVKEEGDKDESKQEPEVIYETNCHWEGCAREFDTQEQLVHHINNDHIHGEKKEFVCRWLDCSREQKPFKAQYMLVVHMRRHTGEKPHKCTFEGCTKAYSRLENLKTHLRSHTGEKPYVCEHEGCNKAFSNASDRAKHQNRTHSNEKPYVCKIPGCTKRYTDPSSLRKHVKTVHGPEAHVTKKQRGDIHPRPPPPRDSGSHSQSRSPGRPTQGALGEQQDLSNTTSKREECLQVKTVKAEKPMTSQPSPGGQSSCSSQQSPISNYSNSGLELPLTDGGSIGDLSAIDETPIMDSTISTATTALALQARRNPAGTKWMEHVKLERLKQVNGMFPRLNPILPPKAPAVSPLIGNGTQSNNTCSLGGPMTLLPGRSDLSGVDVTMLNMLNRRDSSASTISSAYLSSRRSSGISPCFSSRRSSEASQAEGRPQNVSVADSYDPISTDASRRSSEASQSDGLPSLLSLTPAQQYRLKAKYAAATGGPPPTPLPNMERMSLKTRLALLGDALEPGVALPPVHAPRRCSDGGAHGYGRRHLQPHDAPGHGVRRASDPVRTGSEGLALPRVPRFSSLSSCNPPAMATSAEKRSLVLQNYTRPEGGQSRNFHSSPCPPSITENVTLESLTMDADANLNDEDFLPDDVVQYLNSQNQAGYEQHFPSALPDDSKVPHGPGDFDAPGLPDSHAGQQFHALEQPCPEGSKTDLPIQWNEVSSGSADLSSSKLKCGPRPAVPQTRAFGFCNGMVVHPQNPLRSGPAGGYQTLGENSNPYGGPEHLMLHNSPGSGTSGNAFHEQPCKAPQYGNCLNRQPVAPGALDGACGAGIQASKLKSTPMQGSGGQLNFGLPVAPNESAGSMVNGMQNQDPVGQGYLAHQLLGDSMQHPGAGRPGQQMLGQISATSHINIYQGPESCLPGAHGMGSQPSSLAVVRGYQPCASFGGSRRQAMPRDSLALQSGQLSDTSQTCRVNGIKMEMKGQPHPLCSNLQNYSGQFYDQTVGFSQQDTKAGSFSISDASCLLQGTSAKNSELLSPGANQVTSTVDSLDSHDLEGVQIDFDAIIDDGDHSSLMSGALSPSIIQNLSHSSSRLTTPRASLPFPALSMSTTNMAIGDMSSLLTSLAEESKFLAVMQ | no binding
2 | Gli2 (other) METSASATASEKQEAKSGILEAAGFPDPGKKASPLVVAAAAAAAVAAQGVPQHLLPPFHAPLPIDMRHQEGRYHYEPHSVHGVHGPPALSGSPVISDISLIRLSPHPAGPGESPFNAPHPYVNPHMEHYLRSVHSSPTLSMISAARGLSPADVAQEHLKERGLFGLPAPGTTPSDYYHQMTLVAGHPAPYGDLLMQSGGAASAPHLHDYLNPVDVSRFSSPRVTPRLSRKRALSISPLSDASLDLQRMIRTSPNSLVAYINNSRSSSAASGSYGHLSAGALSPAFTFPHPINPVAYQQILSQQRGLGSAFGHTPPLIQPSPTFLAQQPMALTSINATPTQLSSSSNCLSDTNQNKQSSESAVSSTVNPVAIHKRSKVKTEPEGLRPASPLALTQGQVSGHGSCGCALPLSQEQLADLKEDLDRDDCKQEAEVVIYETNCHWEDCTKEYDTQEQLVHHINNEHIHGEKKEFVCRWQACTREQKPFKAQYMLVVHMRRHTGEKPHKCTFEGCSKAYSRLENLKTHLRSHTGEKPYVCEHEGCNKAFSNASDRAKHQNRTHSNEKPYICKIPGCTKRYTDPSSLRKHVKTVHGPDAHVTKKQRNDVHLRTPLLKENGDSEAGTEPGGPESTEASSTSQAVEDCLHVRAIKTESSGLCQSSPGAQSSCSSEPSPLGSAPNNDSGVEMPGTGPGSLGDLTALDDTPPGADTSALAAPSAGGLQLRKHMTTMHRFEQLKKEKLKSLKDSCSWAGPTPHTRNTKLPPLPGSGSILENFSGSGGGGPAGLLPNPRLSELSASEVTMLSQLQERRDSSTSTVSSAYTVSRRSSGISPYFSSRRSSEASPLGAGRPHNASSADSYDPISTDASRRSSEASQCSGGSGLLNLTPAQQYSLRAKYAAATGGPPPTPLPGLERMSLRTRLALLDAPERTLPAGCPRPLGPRRGSDGPTYGHGHAGAAPAFPHEAPGGGARRASDPVRRPDALSLPRVQRFHSTHNVNPGPLPPCADRRGLRLQSHPSTDGGLARGAYSPRPPSISENVAMEAVAAGVDGAGPEADLGLPEDDLVLPDDVVQYIKAHASGALDEGTGQVYPTESTGFSDNPRLPSPGLHGQRRMVAADSNVGPSAPMLGGCQLGFGAPSSLNKNNMPVQWNEVSSGTVDALASQVKPPPFPQGNLAVVQQKPAFGQYPGYSPQGLQASPGGLDSTQPHLQPRSGAPSQGIPRVNYMQQLRQPVAGSQCPGMTTTMSPHACYGQVHPQLSPSTISGALNQFPQSCSNMPAKPGHLGHPQQTEVAPDPTTMGNRHRELGVPDSALAGVPPPHPVQSYPQQSHHLAASMSQEGYHQVPSLLPARQPGFMEPQTGPMGVATAGFGLVQPRPPLEPSPTGRHRGVRAVQQQLAYARATGHAMAAMPSSQETAEAVPKGAMGNMGSVPPQPPPQDAGGAPDHSMLYYYGQIHMYEQDGGLENLGSCQVMRSQPPQPQACQDSIQPQPLPSPGVNQVSSTVDSQLLEAPQIDFDAIMDDGDHSSLFSGALSPSLLHSLSQNSSRLTTPRNSLTLPSIPAGISNMAVGDMSSMLTSLAEESKFLNMMT | no binding
